Patent US20160137696A1 (Bristol-Myers Squibb, published 2016)
Starred links: 1 amine or outer side, 2 acyl side, 3 side chain; linkers in the order of their positions; H or OH if unused. Positions of bridges follow the written chain, without caps; N, C: chain ends. Non-standard residues stand in square brackets, D forms with d. Groups on a side chain read outwards from the residue. Primed or numbered codes have the meaning given here. No end group written: not given here. *: point of attachment. Pra′ = propargylglycine (built in as LPH), clicked to a 1-substituted triazol-4-yl-alanine, O=C([C@H](Cc1cn([*:3])nn1)N[*:1])[*:2]; X1 = (S)‑3‑carboxy‑3‑(15-carboxypentadecanoylamino)propyl, O=C(O)CCCCCCCCCCCCCCC(=O)N[C@@H](CC*)C(=O)O; Phe(4-OMe) = p-methoxyphenylalanine (O-methyl-L-tyrosine), COc1ccc(C[C@H](N[*:1])C(=O)[*:2])cc1; Pra″ = its azide, alkyne or alkene has reacted where a group follows in round brackets; Pra(4) = propargylglycine, clicked with an azide to give a triazolylalanine residue; X2 = (S)‑3‑carboxy‑3‑palmitamidopropyl, CCCCCCCCCCCCCCCC(=O)N[C@@H](CC*)C(=O)O; Pra(3) = propargylglycine, clicked to an azide to give a triazolyl-alanine; triazole = 1,2,3-triazole formed by click of the Pra alkyne with the azide; Trp(1-CH2CO) = O=C([C@H](Cc1cn(CC(=O)[*:3])c2ccccc12)N[*:1])[*:2]; Phe(3,4,5-F3) = N[C@@H](Cc1cc(F)c(F)c(F)c1)C(=O)O; C18 diacid = O=C(O)CCCCCCCCCCCCCCCCC(=O)*; C16 diacid = O=C(O)CCCCCCCCCCCCCCC(=O)*; γGlu = O=C(O)[C@H](CCC(=O)[*:2])N[*:1]; Aha = [N-]=[N+]=NCC[C@H](N)C(=O)O; Hyp = O=C(O)[C@@H]1C[C@@H](O)CN1; NMeF = CN[C@@H](Cc1ccccc1)C(=O)O; dHyp = O=C(O)[C@H]1C[C@H](O)CN1; NMeNle = CCCC[C@H](NC)C(=O)O; triazole″ = not defined here; Bzt = benzothienylalanine; Pip = O=C(O)[C@@H]1CCCCN1; NMeA = CN[C@@H](C)C(=O)O; Orn = NCCC[C@H](N)C(=O)O; PEG7′ = not defined here; Pra = C#CC[C@H](N)C(=O)O; Dab = NCC[C@H](N)C(=O)O; Dap = NC[C@H](N)C(=O)O

B1: INT-130AB (peptide)
peptide: {CH2CO}-Y[NMeA]NP[Dap]L[Hyp]W[Dab][Trp(1-CH2CO)][NMeNle][NMeNle]LCGGG[Pra]-OH
modifications: thioether N-14
SMILES: C#CC[C@H](NC(=O)CNC(=O)CNC(=O)CNC(=O)[C@@H]1CSCC(=O)N[C@@H](Cc2ccc(O)cc2)C(=O)N(C)[C@@H](C)C(=O)N[C@@H](CC(N)=O)C(=O)N2CCC[C@H]2C(=O)N[C@@H](CN)C(=O)N[C@@H](CC(C)C)C(=O)N2C[C@H](O)C[C@H]2C(=O)N[C@@H](Cc2c[nH]c3ccccc23)C(=O)N[C@@H](CCN)C(=O)N[C@@H](Cc2cn(CC(=O)O)c3ccccc23)C(=O)N(C)[C@@H](CCCC)C(=O)N(C)[C@@H](CCCC)C(=O)N[C@@H](CC(C)C)C(=O)N1)C(=O)O
notes: also called Intermediate 130AB
B2: INT-130AF (peptide)
peptide: {CH2CO}-Y[NMeA]NP[Dap]L[Hyp]W[Dab][Trp(1-CH2CO)][NMeNle][NMeNle]LC[Pra]-OH
modifications: thioether N-14
SMILES: C#CC[C@H](NC(=O)[C@@H]1CSCC(=O)N[C@@H](Cc2ccc(O)cc2)C(=O)N(C)[C@@H](C)C(=O)N[C@@H](CC(N)=O)C(=O)N2CCC[C@H]2C(=O)N[C@@H](CN)C(=O)N[C@@H](CC(C)C)C(=O)N2C[C@H](O)C[C@H]2C(=O)N[C@@H](Cc2c[nH]c3ccccc23)C(=O)N[C@@H](CCN)C(=O)N[C@@H](Cc2cn(CC(=O)O)c3ccccc23)C(=O)N(C)[C@@H](CCCC)C(=O)N(C)[C@@H](CCCC)C(=O)N[C@@H](CC(C)C)C(=O)N1)C(=O)O
B3: Example 14123 (peptide)
peptide: FXDPXLPWXWXXLCGE
modifications: ClAc-Tyr(4-F)-Pip-Asp-Pro-Dap-Leu-Hyp-Trp-Dab-Trp'-mNle-mNle-Leu-Cys-Gly-((S)-4-(Fmoc-amino)-5-(tert-butoxy)-5-oxopentanoic acid)-[Modified resin 14A], deprotected; Glu joined through its gamma-carboxyl; 14A = ethylenediamine amide of the gamma-carboxyl of Glu N-(17-carboxyheptadecanoyl); cyclised ClAc-Cys
B4: INT-130AG (peptide)
peptide: {CH2CO}-Y[NMeA]NP[Dap]L[Hyp]W[Dab][Trp(1-CH2CO)][NMeNle][NMeNle]EC[Pra]-OH
modifications: thioether N-14
SMILES: C#CC[C@H](NC(=O)[C@@H]1CSCC(=O)N[C@@H](Cc2ccc(O)cc2)C(=O)N(C)[C@@H](C)C(=O)N[C@@H](CC(N)=O)C(=O)N2CCC[C@H]2C(=O)N[C@@H](CN)C(=O)N[C@@H](CC(C)C)C(=O)N2C[C@H](O)C[C@H]2C(=O)N[C@@H](Cc2c[nH]c3ccccc23)C(=O)N[C@@H](CCN)C(=O)N[C@@H](Cc2cn(CC(=O)O)c3ccccc23)C(=O)N(C)[C@@H](CCCC)C(=O)N(C)[C@@H](CCCC)C(=O)N[C@@H](CCC(=O)O)C(=O)N1)C(=O)O

Biological target: T1, Recombinant Human PD-L1-TVMV-His (human, UniProt Q9NZQ7 19-239)
T1 construct: expressed in HEK293T cells; also called PD-L1-His; hPD-L1(19-239)-TVMV-His
T1 sequence (Q9NZQ7 other isoform, or with tags, fused parts or gaps limits assumed): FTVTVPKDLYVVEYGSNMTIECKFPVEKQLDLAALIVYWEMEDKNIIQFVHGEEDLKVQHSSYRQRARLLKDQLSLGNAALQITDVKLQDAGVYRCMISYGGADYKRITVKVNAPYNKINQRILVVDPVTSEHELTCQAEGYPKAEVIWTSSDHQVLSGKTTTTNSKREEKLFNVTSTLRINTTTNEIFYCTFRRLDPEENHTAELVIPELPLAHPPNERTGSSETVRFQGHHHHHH
Experiment: HTRF vs PD-1-Ig; B = IC50 0.01-0.099 µM
Protocol: (§1) Homogenous Time-Resolved Fluorescence (HTRF) Assays of Binding of Soluble PD-1 to Soluble PD-L1. Soluble PD-1 and soluble PD-L1 refers to proteins with carboxyl-end truncations that remove the transmembrane-spanning regions and are fused to heterologous sequences, specifically the Fc portion of the human immunoglobuling G sequence (Ig) or the hexahistidine epitope tag (His). All binding studies were performed in an HTRF assay buffer consisting of dPBS supplemented with 0.1% (w/v) bovine serum albumin and 0.05% (v/v) Tween-20. For the PD-1-Ig/PD-L1-His binding assay, inhibitors were pre-incubated with PD-L1-His (10 nM final) for 15 m in 4 μl of assay buffer, followed by addition of PD-1-Ig (20 nM final) in 1 μl of assay buffer and further incubation for 15 m. PD-L1 fusion proteins from either human, cynomologous macaques, mouse, or other species were used. HTRF detection was achieved using europium crypate-labeled anti-Ig monoclonal antibody (1 nM final) and allophycocyanin (APC) labeled anti-His monoclonal antibody (20 nM final). Antibodies were diluted in HTRF detection buffer and 5 μl was dispensed on top of binding reaction. The reaction was allowed to equilibrate for 30 minutes and signal (665 nm/620 nm ratio) was obtained using an EnVision fluorometer. Additional binding assays were established between PD-I-Ig/PD-L2-His (20 and 5 nM, respectively), CD80-His/PD-L1-Ig (100 and 10 nM, respectively) and CD80-His/CTLA4-Ig (10 and 5 nM, respectively). Binding/competition studies between biotinylated Compound No. 71 and human PD-L1-His were performed as follows. Macrocyclic peptide inhibitors were pre-incubated with PD-L1-His (10 nM final) for 60 minutes in 4 μl of assay buffer followed by addition of biotinylated Compound No. 71 (0.5 nM final) in 1 μl of assay buffer. Binding was allowed to equilibrate for 30 minutes followed by addition of europium crypated labeled Streptavidin (2.5 pM final) and APC-labeled anti-His (20 nM final) in 5 μl of HTRF buffer. The reaction was allowed to equilibrate for 30 m and signal (665 nm/620 nm ratio) was obtained using an EnVision fluorometer.

Row | Binder | IC50
1 | {CH2CO}-Y[NMeA]NP[Dap]L[Hyp]WS[Trp(1-CH2CO)][NMeNle][NMeNle]LCG[Pra(4)]([triazole-Dab-C16 diacid]) (thioether N-14) [Example 14083] | 10 to 99 nM
2 | {CH2CO}-Y[NMeA]DPHQ[Hyp]WSW[NMeNle][NMeNle]ECG[Pra′]([triazole-X1])G (thioether N-14) [Example 14069] | 10 to 99 nM
3 | {CH2CO}-Y[NMeA]NP[Dap]L[Hyp]W[Dab][Trp(1-CH2CO)][NMeNle][NMeNle]LCGGG[Pra″]([triazole-PEG7′-γGlu-C18 diacid]) (thioether N-14 (inferred)) [Example 13124] | 10 to 99 nM
4 | {CH2CO}-[Phe(3,4,5-F3)][NMeF][NMeNle][dP]DV[NMeF][Orn][dP]WYLCG[Pra′]([triazole-X1]) (thioether N-13) [Example 14073] | 10 to 99 nM
5 | {CH2CO}-Y[NMeA]DPHQ[Hyp]WSW[NMeNle][NMeNle]ECG[Pra(3)]([triazole″-X2])G (thioether N-14; reading uncertain) [Example 14062] | 10 to 99 nM
6 | {CH2CO}-Y[NMeA]DPHK[Hyp]WKW[NMeNle][NMeNle]ECG[Pra(3)]([triazole″-2,5,8,11‑tetraoxatridecyl])G (thioether N-14; reading uncertain) [Example 14063] | 10 to 99 nM
7 | {CH2CO}-Y[NMeA]NP[Dap]L[Hyp]WS[Trp(1-CH2CO)][NMeNle][NMeNle]LCG[Pra′]([triazole-X2]) (thioether N-14) [Example 14080] | 10 to 99 nM
8 | {CH2CO}-Y[NMeA]DPHK[Hyp]WK[Trp(1-CH2CO)][NMeNle][NMeNle]ECG[Pra′]([triazole-X2]) (thioether N-14) [Example 14079] | 10 to 99 nM
9 | B1 | 10 to 99 nM
10 | {CH2CO}-Y[NMeA]DPHQ[Hyp]WSW[NMeNle][NMeNle]ECG[Pra′]([triazole-X1]) (thioether N-14) [Example 14068] | 10 to 99 nM
11 | {CH2CO}-Y[NMeA]DPHK[Hyp]WK[Trp(1-CH2CO)][NMeNle][NMeNle]ECG[Pra′]([triazole-X1]) (thioether N-14) [Example 14075] | 10 to 99 nM
12 | {CH2CO}-[Phe(3,4,5-F3)][NMeF][NMeNle][dHyp]DV[NMeF]D[dP]WYLCG[Pra′]([triazole-X1]) (thioether N-13) [Example 14074] | 10 to 99 nM

Biological target: T1, Recombinant Human PD-L1-TVMV-His
Experiment: HTRF vs PD-1-Ig; C = IC50 0.0003-0.0099 µM
Protocol: as §1

Row | Binder | IC50
13 | {CH2CO}-Y[Pip]NP[DapMe]L[Hyp]W[Dab][Trp(1-CH2CO)][NMeNle][NMeNle]LCG[Pra] (thioether N-14 (inferred)) [INT-130AK] | 0.3 to 9.9 nM
14 | {CH2CO}-Y[Pip]NP[Dap]L[Hyp]W[Dab][Trp(1-CH2CO)][NMeNle][NMeNle]ECG[Pra] (thioether N-14 (inferred)) [INT-130AJ] | 0.3 to 9.9 nM
15 | {CH2CO}-Y[NMeA]NP[Dap]L[Hyp]WS[Bzt][NMeNle][NMeNle]RCG[Aha] (thioether N-14) [INT-1300B] | 0.3 to 9.9 nM
16 | {CH2CO}-Y[NMeA]NP[Dap]L[Hyp]W[Dab][Trp(1-CH2CO)][NMeNle][NMeNle]LCG[Dap]([γGlu-C18 diacid]) (thioether N-14 (inferred)) [Example 13153] | 0.3 to 9.9 nM
17 | {CH2CO}-Y[Pip]NP[DapMe]L[Hyp]W[Dab][Trp(1-CH2CO)][NMeNle][NMeNle]ECG[Pra] (thioether N-14 (inferred)) [INT-130AL] | 0.3 to 9.9 nM
18 | B2 | 0.3 to 9.9 nM
19 | B3 | 0.3 to 9.9 nM
20 | {CH2CO}-Y[Pip]NP[Dap]L[Hyp]W[Dab][Trp(1-CH2CO)][NMeNle][NMeNle]LCG[Pra] (thioether N-14 (inferred)) [INT-130AI] | 0.3 to 9.9 nM
21 | {CH2CO}-Y[Pip]NP[Dap]L[Hyp]W[Dab][Trp(1-CH2CO)][NMeNle][NMeNle]LCG[Dap]([γGlu-C18 diacid]) (thioether N-14 (inferred)) [Example 13152] | 0.3 to 9.9 nM
22 | {CH2CO}-Y[NMeA]NP[Dap]L[Hyp]W[Dab][Trp(1-CH2CO)][NMeNle][NMeNle]DC[Pra]-OH (thioether N-14 (inferred)) [INT-130AH] | 0.3 to 9.9 nM
23 | B4 | 0.3 to 9.9 nM
24 | {CH2CO}-Y[NMeA]NP[Dap]L[Hyp]WS[Bzt][NMeNle][NMeNle]RCG[Pra] (thioether N-14) [INT-1300A] | 0.3 to 9.9 nM
25 | {CH2CO}-[Phe(4-OMe)][Pip]NPHQ[Hyp]W[Dab][Trp(1-CH2CO)][NMeNle][NMeNle]LCG[Dap]([γGlu-C18 diacid]) (thioether N-14) [Example 13154] | 0.3 to 9.9 nM
26 | {CH2CO}-Y[NMeA]NP[Dap]L[Hyp]WSW[NMeNle][NMeNle]RCG[Pra′]([triazole-X1]) (thioether N-14) [Example 14066] | 0.3 to 9.9 nM
